Assay results as given in article PMC4635001, “Structural Characterisation of FabG from Yersinia pestis, a Key Component of Bacterial Fatty Acid Synthesis” (PLoS ONE, 2015).

Target: the molecule itself
Assay: crystal structure

B1: Yersinia pestis FabG (ketoacyl-acyl carrier protein reductase) (enzyme)
chain: MSFEGKIALVTGASRGIGRAIAELLVERGACVIGTATSEKGAEAISAYLGENGKGLMLNVVDPTSIDTVLATIRAEFGEVDILVNNAGITRDNLLMRMKDDEWQDIIDTNLTSVFRLSKAVMRAMMKKRFGRIITIGSVVGTMGNAGQVNYAAAKAGVIGFSKSLAREVASRGITVNVVAPGFIETDMTRTLTDDQRAGILAQVPANRLGDAKEIASAVAFLASDEASYISGETLHVNGGMYMI
notes: also called YpFabG; YpFabG TMAO
- stoichiometry N: 4
